Results: patent publication US20050250143

Test system: Myc-tagged MIF1/MSP58 protein (plasmid pCM562), expressed in CHO stable clone #34
Sequence (chain, as listed by the source): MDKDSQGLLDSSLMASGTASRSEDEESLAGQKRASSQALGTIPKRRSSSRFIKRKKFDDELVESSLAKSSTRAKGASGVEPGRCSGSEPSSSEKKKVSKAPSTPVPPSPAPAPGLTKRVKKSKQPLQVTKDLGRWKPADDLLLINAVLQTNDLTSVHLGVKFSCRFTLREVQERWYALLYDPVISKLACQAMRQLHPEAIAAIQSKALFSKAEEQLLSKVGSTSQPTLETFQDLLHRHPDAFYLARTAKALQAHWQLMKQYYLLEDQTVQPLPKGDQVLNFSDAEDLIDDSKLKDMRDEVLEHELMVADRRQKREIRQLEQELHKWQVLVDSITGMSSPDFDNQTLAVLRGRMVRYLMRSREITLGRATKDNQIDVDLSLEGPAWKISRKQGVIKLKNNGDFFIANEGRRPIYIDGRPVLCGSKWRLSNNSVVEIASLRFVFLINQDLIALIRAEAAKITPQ

MEKK1 of CHO cells (cellular, activated by sorbitol)
JNK activation (in vitro GST-Jun(1-223) phosphorylation) after 200 mM sorbitol, CHOMIF1 #34 against CHOpCDNA3: Cells expressing MIF1 showed an inhibition of JNK activation (revelated by weak GST-JUNphosphorylation) in response to sorbitol incubation
